From patent US10584153B2, “Treatment of damaged nerve with PTEN inhibitor” (TISSUEGENE, INC., priority 2013, dated 2020)
Where “and” joins values, the source holds several entries; their conditions need not be identical. Identical values can stand only once. No end group written: not given here.

Experiments:
PTEN [1] = target: T1, PTEN (Homo sapiens, UniProt P60484); details: from Odriozola et al.; read-out: IC50, in vitro PTEN (Odriozola peptides); cited from earlier work
Target sequence in this assay (P60484 whole entry, species assumed): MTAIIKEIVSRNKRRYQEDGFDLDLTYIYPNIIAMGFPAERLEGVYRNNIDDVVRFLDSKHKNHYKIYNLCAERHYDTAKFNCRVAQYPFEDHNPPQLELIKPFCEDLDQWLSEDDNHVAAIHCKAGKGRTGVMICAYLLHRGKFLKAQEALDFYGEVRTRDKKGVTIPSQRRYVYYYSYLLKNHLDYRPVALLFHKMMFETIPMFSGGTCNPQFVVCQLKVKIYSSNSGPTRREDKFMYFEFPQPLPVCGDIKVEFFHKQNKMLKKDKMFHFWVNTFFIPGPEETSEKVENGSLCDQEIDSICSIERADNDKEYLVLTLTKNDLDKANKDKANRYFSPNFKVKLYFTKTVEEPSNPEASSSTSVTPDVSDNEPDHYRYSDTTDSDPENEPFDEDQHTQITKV

PTEN [2] = target: T1, PTEN; assay: In vitro PTEN activity assay / IC50 assay (Malachite Green, C8-PIP3 liposome); assay type: biochemical; set-up: purchased R&D Systems, Inc; details: 10 μM peptide
Target sequence in this assay (P60484 whole entry): as the sequence (P60484 whole entry, species assumed) above
Source text: In vitro PTEN activity assay was designed to check PTEN lipid phosphatase activity to convert phosphatidylinositol triphosphate (PIP3) to phosphatidylinositol diphosphate (PIP2) and produce phosphate ion (Pi). 1,2-dioctanoyl-sn-glycero-3-phospho-(1′-myo-inositol-3,4,5-triphosphate) (C8-PIP3) was used as PTEN substrate and prepared as lipid vesicle (liposome) with other phospholipids because PTEN as lipid phosphatase is an interfacial enzyme. For liposome preparation, C8-PIP3, DOPS (1,2-dioeloyl-sn-glycero-phosphoserine) and DOPC (1,2-dioeloyl-sn-glycero-phosphocholine) were mixed together with 800 μL of liposome buffer (50 mM Tris, 100 mM NaCl, 10 mM MgCl2, 5 mM DTT, pH=8.0) to final concentration of 0.1 mM of C8-PIP3, 0.25 mM DOPS and 0.25 mM DOPC. The lipid mixture was then sonicated at 4° C. for 30 min to produce liposome. After sonication, the liposome solution was briefly centrifuged to remove remaining lipids.
For PTEN activity assay, 20 ng of recombinant human PTEN protein was mixed with 40 μL of completed liposome solution. […] After incubation, the inorganic phosphate ions produced by PTEN protein was detected using Malachite Green phosphate detection kit. […]
All data represent experimentation in triplicate and the IC50 values were calculated by Prism 5 software (GraphPad Software).

[3] = test system: Akt protein phosphorylation in PC12 cells (PI3K-Akt signaling pathway); assay: Akt activation (phosphorylation) level by Western blot in PC12 cells; assay type: cell-based, rat; details: endogenous or overexpressed PTEN, TGN-1 10 and 100 μM, TGN-4 10 μM, 24 hr
Procedure: PC12 rat pheochromocytoma cells were seeded to 6-well plate (0.6×10^6 cells/well) and cultured with DMEM media containing 7.5% FBS and 7.5% Goat Serum. After the cell confluency reached around 60˜70%, NGF (nerve growth factor, 50 ng/mL) was added to the PC12 cells for differentiation and incubated for 5 more days. Then, fresh media containing different amounts of TGN peptides in DMSO solution were added to each well and incubated further for 24 hr. For PTEN overexpession, PC12 cells were seeded in 6-well plate (1.0×10^6 cells/well) and differentiated with NGF (50 ng/mL) as above. DNA-Lipofectamine 2000 mixture was prepared for each well of cells to be transfected by firstly adding 2˜2.5 μg of human PTEN c-DNA into 500 μl of Opti-MEM. 3.75-8.75 μl of Lipofectamine 2000™ reagent was added next to the above diluted DNA solution, mixed gently and incubated for 25 minutes at room temperature. Growth media of PC12 cells in 6-well plate was exchanged with fresh media and 500 μl of the DNA-Lipofectamine 2000 complex was added to each well for transfection. Transfected cells were incubated at 37° C. in 5.0% CO2 incubator for 24-48 hours post-transfection before assaying for transgene expression.
After culturing, PC12 cells were collected from the 6-well plate and centrifuged down with bench-top centrifuger to make cell pellet (13,000 rpm, 5 min at RT). […]

Substance | IC50 (PTEN [1]) | Inhibitory effect on in vitro PTEN activity (PTEN [2]) | Activation (phosphorylation) level of Akt protein [3]
Cp23: synthetic phosphomimic peptide of Odriozola et al. encompassing PTEN AA368-390, no phosphorylated Serine residues (DVSDNEPDHYRYSDTTDSDPENE; UniProt P60484 368-390, looked up, fragment) | ~1.03 mM and 1.03 mM | – | –
RRRRRRRR-DEHDTEYTPDYRQETHFNSQPTDKSDVI-amide (RRRRRRRRDEHDTEYTPDYRQETHFNSQPTDKSDVI-NH2) [TGN-5, TGN-2/TGN-3 scrambled peptide] | – | no significant inhibition | –
RRRRRRRR-SDDEYTDNPDSRYVSDTPVDTEH-amide (RRRRRRRRSDDEYTDNPDSRYVSDTPVDTEH-NH2) [TGN-4, scrambled peptide of TGN-1 peptide, negative control] | – | no significant inhibition | did not increase the activation level of AKT protein
